In patent US20140294828A1 (COMPLIX, published 2014):

Target: HIV-1 Env of the HXB2 strain (envelope glycoprotein complex gp120/gp41) (HIV-1 (HXB2 strain), UniProt P04578 33-856)
Test: cell-based or functional assay

B1: single-chain Alphabody scAB_Env03_KC (designed binder)
chain: MGHHHHHHHHHHSSGHIEGRHMSIEEIQKPIATIQEAIAWIQKKIYMMTGGSGGGSGGGSGGGSGMSIEEIQKQIAAIQCQIAAIQKQIYAMTGGSGGGSGGGSGGGSGMSIEEIQKQIVAIMEQIVAIVKQISAMTP
modifications: Interchain disulfide between Cys80 of chain 1 and Cys80 of chain 2 (homodimer; paragraph 268, and FIG.11 prints 'scAB_Env03_KC (dimer)').
notes: also called Env03 Cys-mutant
  50% inhibitory concentration (IC50), 5-day MTT infection assay, HXB2 virus on MT4-X4 cells: 709 nM
